Experimental data published in paper PMC3950705.

B1: 11/28-mer primer-template G4 DNA (mixed)
DNA 1: TGGGTGGGTAGGGTGGGTAGGGGAGGAT
DNA 2: ATCCTCCCCTA
B2: 11/28-mer primer-template non-G4 DNA (mixed)
DNA 1: TATGTGACTATGCTGGGTAGGGGAGGAT
DNA 2: ATCCTCCCCTA
B3: FAM/Dab 18/42-mer G4 DNA (mixed)
DNA 1: TGAGGGTGGGTAGGGTGGGTGCGTCTGCGGCTGGCTCGAGGC
DNA 2: GCCTCGAGCCAGCCGCAG
B4: 23/42-mer Myc2345 G14/23T primer-template (mixed)
DNA 1: TGAGGGTGGGTAGGGTGGGTGCGTCTGCGGCTGGCTCGAGGC
DNA 2: GCCTCGAGCCAGCCGCAGACGCA

Experiments:
[1] = target: T1, hRev1 330-833 (core polymerase domain) (human, UniProt Q9UBZ9 330-833); assay: fluorescence polarization
T1 sequence: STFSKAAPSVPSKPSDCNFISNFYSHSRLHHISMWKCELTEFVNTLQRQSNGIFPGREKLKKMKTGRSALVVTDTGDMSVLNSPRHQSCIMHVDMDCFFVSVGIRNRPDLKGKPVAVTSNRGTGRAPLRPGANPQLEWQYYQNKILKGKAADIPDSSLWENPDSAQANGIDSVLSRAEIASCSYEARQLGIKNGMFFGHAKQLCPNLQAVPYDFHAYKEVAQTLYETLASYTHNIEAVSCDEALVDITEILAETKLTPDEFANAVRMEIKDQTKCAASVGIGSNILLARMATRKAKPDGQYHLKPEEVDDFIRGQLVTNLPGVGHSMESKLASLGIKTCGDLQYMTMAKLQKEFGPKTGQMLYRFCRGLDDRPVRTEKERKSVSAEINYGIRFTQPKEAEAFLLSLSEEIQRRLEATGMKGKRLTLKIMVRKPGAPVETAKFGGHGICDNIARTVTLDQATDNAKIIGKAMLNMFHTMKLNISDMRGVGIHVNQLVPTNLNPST

[2] = target: T1, hRev1 330-833 (core polymerase domain); assay: stopped-flow fluorescence quenching
[3] = target: T1, hRev1 330-833 (core polymerase domain); assay: DMS footprinting
[4] = target: T1, hRev1 330-833 (core polymerase domain); assay: stopped-flow fluorescence quenching; remark: listed apart in the source

Binder | Kd [1] [nM] | also measured
B1 | 8.4 ± 2.5 | –
TGGGTGGGTAGGGTGGGTAGGGGAGGAT (structured_DNA) [ss-G4 DNA 28-mer] | 15.7 ± 8.7 | –
B2 | 129 ± 20 | –
B3 | – | binding result [2]: binds
B4 | – | binding result [3]: binds
TGAGGGTGGGTAGGGTGGGTGCGTCTGCGGCTGGCTCGAGGC (structured_DNA) [FAM/Dab 42-mer ss-G4 DNA (Myc2345 G14/23T)] | – | binding result [4]: binds
TATGTGACTATGCTGGGTAGGGGAGGAT (ssDNA) [ss-non-G4 DNA 28-mer] | 65.7 ± 8.8 | –
